Data published in article PMC4509860.

Assays:
Assay in all cases: fluorescence polarisation
[1] = target: FITC-labeled CurA leader (Corynebacterium urealyticum DSM 7109)
[2] = target: FITC-labeled StmA leader peptide (Streptomonospora alba)
[3] = target: FITC-labeled HcaA leader peptide (Bacillus sp. Al Hakam)
[4] = target: FITC-labeled BalhA1 leader peptide (Bacillus sp. Al Hakam)

CurC I75A (natural protein)
Kd [1]: 66000 nM

StmE Y28A (natural protein)
Kd [2]: 28 nM

HcaF N72A (natural protein)
Kd [3]: 79 nM

StmE V12A (natural protein)
Kd [2]: 160 nM

CurC E36A (natural protein)
Kd [1]: 3100 nM

CurC Y31A (natural protein)
Kd [1]: > 150000 nM

HcaF E76A (natural protein)
Kd [3]: 250 nM

HcaF R73A (natural protein)
Kd [3]: > 10000 nM

CurC Q21A (natural protein)
Kd [1]: 8000 nM

BalhC H38A (natural protein)
Kd [4]: 21000 nM

BalhC D23A (natural protein)
Kd [4]: 50000 nM

HcaF E79A (natural protein)
Kd [3]: 75 nM

StmE D68A (natural protein)
Kd [2]: 38 nM

BalhC D32A (natural protein)
Kd [4]: 21000 nM

HcaF I80A (natural protein)
Kd [3]: 500 nM

StmE wild-type (natural protein)
Kd [2]: 35 nM

BalhC wild-type (natural protein)
Kd [4]: 10000 nM

HcaF D38A (natural protein)
Kd [3]: 77 nM

CurC D18A (natural protein)
Kd [1]: 3300 nM

StmE N22A (natural protein)
Kd [2]: 410 nM

StmE Q76A (natural protein)
Kd [2]: 75 nM

CurC R68A (natural protein)
Kd [1]: 79000 nM

BalhC E66A (natural protein)
Kd [4]: 60000 nM

BalhC K20A (natural protein)
Kd [4]: 52000 nM

CurC E25A (natural protein)
Kd [1]: 4300 nM

StmE D69A (natural protein)
Kd [2]: 2600 nM

StmE D75A (natural protein)
Kd [2]: 35 nM
